The values that follow come from patent US20230220053A1 (published 2023).

B1: 2020EP54-H01 scFv (scFv)
scFv: QVQLVESGGGVVQPGRSLRLSCAASGFTFSSYGMHWVRQAPGKGLEWVAVISYDGSNKYYADSVKGRFTISRDNSKNTLYLQMNSLRAEDTAVYYCAKGRGWYLDYWGQGTLVTVSSGGGGSGGGGSGGGGSNFMLTQPPSVSVSPGQTASITCSGDKLGDKYACWYQQKPGQSPVLVMYEDYKRPSGIPARFSGSNSGNTATLTISRVEGGDEGDYYCQVWDSRGPEVIFGGGTKLTVL
notes: also called 2020EP054-H01
B2: 2020EP66-D03 scFv (scFv)
scFv: QVQLQQWGAGLLKPSETLSLTCAVYGGSFSGYYWSWIRQPPGKGLEWIGEINHSGSTNYNPSLKSRVTISVDTSKNQFSLKLSSVTAADTAVYYCARGPPLWNYGKGFDYWGQGTLVTVSSGGGGSGKGGSGGGGSQPVLTQPPSASGTPGQRVTISCSGSSSNIGSNYVYWYQQLPRTAPKLLIYRNNQRPSGVPDRFSGSKSGTSASLAISGLRSEDEADYYCAAWDDSLSAWVFGGGTKLTVL
B3: 2020EP53-D06 scFv (scFv)
scFv: QVQLVQSGGGVVQPGRSLRLSCAASGFTFSSYAMHWVRQAPGKGLEWVAVISYDGSNKYYADSVKGRFTISRDNSKNTLYLQMNSLRAEDTAVYYCARDGEDGYNYISPFDYWGQGTLVTVSSGGGGSGGGGSGGGGSSYELTQPPSVSVAPGETARITCRGNDIGSKSVHWYQQKPGQAPVLVLYYDSDRPSGIPERFSGSNSGNTATLTISSVEAGDEADYYCQVWDIDVVFGGGTKLTVL
B4: 2020EP64-G10 scFv (scFv)
scFv: B3 scFv with G137R, Q226H
B5: 2020EP71-E04 scFv (scFv)
scFv: QVQLVQSGGGVVQPGRSLRLSCAASGFTFSSYGMHWVRQAPGKGLEWVAVISYDGSNKYYADSVKGRFTISRDNSKNTLYLQMNSLRAEDTAVYYCAKDRAYYYGYYYYYYGMDVWGQGTTVTVSSGGGGSGGGGSGGGGSQSVLTQPPSVSGAPGQRVTISCTGSSSNIGAGYDVHWYQQLPGTAPKLLIYGNSNRPSGVPDRFSGSKSGTSASLAITGLQAEDEADYYCATWDDSLSGPVFGGGTKVTVL
B6: 2020EP66-A07 scFv (scFv)
scFv: EVQLVQSGAEVKKPGSSVKVSCKASGGTFSSYAISWVRQAPGQGLEWMGGIIPIFGTANYAQKFQGRVTITADESTSTAYMELSSLRSEDTAVYYCASGGDGYNYDYYYYGMDVWGQGTTVTVSSGGGGSGGGGSGGGGSSYELTQPPSVSVSPGQTATITCSGEKLGDKYSFWYQQKPGQSPVMVMYQDDQRPSGTPERFSGSNSGNTATLTISGTRATDEADYYCQAWDNSASVFGSGTKLTVL
B7: 2020EP64-C08 scFv (scFv)
scFv: QMQLVQSGAEVKKPGSSVKVSCKASGGTFSSYAISWVRQAPRQGLEWMGRIIPILGIANYAQKFQGRVTITADKSTSTAYMELSSLRSEDTAVYYCASSYGGNQLWGQGTLVTVSSGGGGSGGGGSGGGGSQSVLTQPPSASGTPGQRVTISCSGSDSNIGTNTVNWYQQVPGTAPKVLIYSTHQRPSGVPDRFSASKSGTSASLAISGLQSEDEADYYCSSWDVSLNAWVFGGGTKVTVL
B8: 2020EP75-E02 scFv (scFv)
scFv: QMQLVQSGAEVKKPGSSVKVSCKASGGTFSSYAISWVRQAPGQGLEWMGGIIPIFGTANYAQKFQGRVTITADKSTSTAYMELSSLRSEDTAVYYCARPRDYRAQYYFDYWGQGTLVTVSSGGGGSGGGGSGGGGSDIVMTQSPSSLSASVGDRVTITCRAGQDIDTSVNWYQLKPGKAPRLLIYASSSLQTGVPSRFSGGGSGAEFTLTISSLQPEDFATYFCQQTFSTSVTFGGGTKVEIK
B9: 2020EP54-B02 scFv (scFv)
scFv: QVQLVQSGAEVKKPGASVKVSCKASGYTFIGYYMHWMRQAPGQGLEWMGRINPNSGGTNYAEKFQGRVTMTRDTSISTAYMELSRLTFNDTAVYYCARWDSSSWKFDSWGQGTLVTVSSGGGGSGGGGSGGGGSEIVLTQSPSSLSASVGDRVTITCQASQDISNYLNWYQQKPGKAPKLLIYDASNLETGVPSRFSGSGSGTDFTFTISSLQPEDIATYYCQQYDNLPITFGQGTRLEIK
B10: 2020EP60-F05 scFv (scFv)
scFv: QVQLVESGGGVVQPGGSLRLSCAASGFTFSSYGMHWVRQAPGKGLEWVAVISYDGSNKYYADSVKGRFTISRDNSKNTLYLQMNSLRAEDTAVYYCAKARVALGYFDWLLYDGMDVWGQGTTVTVSSGGGGSGGGGSGGGGSSSELTQPPSVSVSPGQTASITCSGDKLGNKYVFWYQQKPGQSPILVIYQDNRRPSGIPERFSGSNSGNTATLTISGDPAMDEADYYCQAWDSSTVVFGGGTKLTVL
B11: 2020EP60-A12 scFv (scFv)
scFv: EVQLVESGGGVVQPGRSLRLSCAASGFTFSSYGMHWVRQAPGKGLEWVAVISYDGSNKYYADSVKGRFTISRDNSKNTLYLQMNSLRAEDTAVYYCAKGLEYYFDYWGQGTLVTVSSGGGGSGGGGSGGGGSSYELTQPPSLSVSPGQTARITCSGDALPEQYAYWYQQKPGQAPVLVIYKDSERPSGIPERFSGSSSGTTVTLTISGVQAEDEADYYCQAWDSSTVVFGGGTKLTVL
B12: 2020EP61-A08 scFv (scFv)
scFv: QVQLVQSGAEVKKPGASVKVSCKASGYTFTSYYMHWVRQAPGQGLEWMGIINPSGGSTSYAQKFQGRVTMTRDTSTSTVYMELSSLRSEDTAVYYCARESGNYYYDSSGYTFDYWGQGTLVTVSSGGGGSGGGGSGGGGSSYVLTQPLSVSVALGQTARITCGGNNIGSKNVHWYQQKPGQAPVLVIYYDSDRPSGIPERFSGSNSGNTATLTISGTQAMDEADYYCQAWDSSTVVFGGGTKLTVL

Substitutions are numbered along the chain they refer to.

In one test the target is T1, S1 protein of SARS-CoV-2 (recombinant, construct not stated) (SARS-CoV-2, UniProt P0DTC2 16-685).
Assay: not given
On to B1, for which the IC50 (usually the midpoint of a concentration-inhibition curve) was determined as 38.4 nM.

In another test the target is S1-Fc (SARS-CoV-2 S1 protein, Fc fusion) (SARS-CoV-2, UniProt P0DTC2 16-685). As to the kind of experiment: SPR (Biacore T200), S1 captured on anti-human Fc chip, scFv injected.
For B2, the Kd (commonly the constant that tells how readily two partners part at equilibrium) is 19.5 nM; the koff (usually a measure of how fast the partners let go of each other) came out at 0.00256 s⁻¹; the kon (as a rule, the rate constant with which the complex forms) stood at 131000 M⁻¹ s⁻¹.
Taken in the same sequence, the figures for B3 were 7.84 nM, 0.00204 s⁻¹ and 260000 M⁻¹ s⁻¹.
For B4 the same measures were 11.2 nM, 0.00242 s⁻¹ and 215000 M⁻¹ s⁻¹.
In turn, B5 had a Kd of 37.6 nM, a koff of 0.0019 s⁻¹ and a kon of 50600 M⁻¹ s⁻¹.
Taken in the same sequence, the figures for B6 were 2.3 nM, 0.00142 s⁻¹ and 614000 M⁻¹ s⁻¹.
For B7 the same measures were 73.6 nM, 0.00693 s⁻¹ and 94100 M⁻¹ s⁻¹.
In the case of B8, the Kd came to 4.46 nM, the koff was 0.00174 s⁻¹ and the kon turned out to be 390000 M⁻¹ s⁻¹.
The molecule B9 yielded a Kd of 91.8 nM, a koff of 0.00366 s⁻¹ and a kon of 39900 M⁻¹ s⁻¹.
For B1 the same measures were 52.5 nM, 0.0052 s⁻¹ and 99000 M⁻¹ s⁻¹.

The target in the next test is T1, S1 protein of SARS-CoV-2 (recombinant, …). Kind of test: ELISA, S1 coated, scFv titrated, anti-Flag HRP.
As for B2, the half-maximal effective concentration (EC50) – broadly, the concentration at which the effect is half-maximal – was determined as 0.514 nM.
In the case of B3, the EC50 came out at 0.511 nM.
Same read-out and setting: in the case of B4 it was 0.936 nM; in that of B5, 5.03 nM; in that of B10, 1.38 nM.
The same measure, in the same setting: in the case of B6 it was 0.525 nM; in that of B11, 27.3 nM; in that of B12, 5.74 nM.
On the same count and under the same terms, the result for B7 reads 40.2 nM.
Consider B8, for which the EC50 was 0.225 nM.
Turning to B1, the EC50 came out at 20.4 nM.

Another test addresses T2, RBD of SARS-CoV-2 spike protein S1 (recombinant, construct not stated) (SARS-CoV-2, UniProt P0DTC2 328-533).
T2 construct: also called SARS-COV-2, RBD; RBD-AF647
As to the kind of experiment: ELISA, RBD coated, scFv titrated, anti-Flag HRP.
Take B2: the binding result was “no binding (tested: 200 nM (highest concentration tested))”.
In the case of B3, the EC50 amounted to 0.818 nM.
Still for that read-out and setting: in the case of B4 it was 0.663 nM.
Take B5: the binding result is “no binding (tested: 200 nM (highest concentration tested))”.
Consider B10, for which the EC50 was determined as 0.649 nM.
B6: the binding result is “no binding (tested: 200 nM (highest concentration tested))”.
On to B11, for which the EC50 was 4.99 nM.
On the same count and under the same terms, the result for B12 reads 2.52 nM; that for B7, 8.73 nM.
As for B8, the binding result is reported as “no binding (tested: 200 nM (highest concentration tested))”.
For B9, the EC50 came to 75.9 nM.
Still for that read-out and setting: in the case of B1 it was 5.77 nM.

A further test concerns the target T3, SARS-CoV-2-RBD (328-533)-Fc (SARS-CoV-2).
T3 construct: also called RBD-Fc
As to the kind of experiment: SPR (Biacore T200), RBD captured on anti-human Fc chip, scFv injected. A general note: Surface plasmon resonance follows binding to a sensor surface in real time, without labels.
With B3, the Kd was 4.4 nM, the koff stood at 0.0011 s⁻¹ and the kon turned out to be 251000 M⁻¹ s⁻¹.
Taken in the same sequence, the figures for B10 were 6.14 nM, 0.00302 s⁻¹ and 491000 M⁻¹ s⁻¹.
Taken in the same sequence, the figures for B12 were 69.4 nM, 0.00191 s⁻¹ and 27500 M⁻¹ s⁻¹.
For B9 the same measures were 69.5 nM, 0.00242 s⁻¹ and 34900 M⁻¹ s⁻¹.
In the case of B1, binding was characterised by a dissociation constant (Kd) of 31.4 nM, the koff amounted to 0.00265 s⁻¹ and the kon was found to be 84300 M⁻¹ s⁻¹.
